± gives the uncertainty stated by the source.
Assay: self-splicing fitness, log relative to wild type (ln ratio); higher = more splicing; Tetrahymena group I intron in knt gene, E. coli kanamycin selection, DiMSum; sequences stand for … in CUCUCU…GGAGGGAAAAGUUAUCAGGCAUGCACCUGGUAGCUAGUCUUUAAACCAAUAGAUUGCAUCGGUUUAAAAGGCAAGACCGUCAAAUUGCGGGAAAGGGGUCAACAGCCGUUCAGUACCAAGUCUCAGGGGAAACUUUGAGAUGGCCUUGCAAAGGGUAUGGUAAUAAGCUGACGGACAUGGUCCUAACCACGCAGCCAAGUCCUAAGUCAACAGAUCUUCUGUUGAUAUGGAUGCAGUUCACAGACUAAAUGUCGGUCGGGGAAGAUGUAUUCUUCUCAUAAGAUAUAGUCGGACCUCUCCUUAAUGGGAGCUAGCGGAUGAAGUGAUGCAACACUGGAGCCGCUGGGAACUAAUUUGUAUGCGAAAGUAUAUUGAUUAGUUUUGGAGUACUCGUGGUCG
Method in brief: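 Pooled colonies went to amplicon sequencing on an Illumina HiSeq 2500 after six replicate transformations. The plates were LB agar with 100 μg/mL carbenicillin, 50 μM IPTG and 0.2% rhamnose, with or without 25 μg/mL kanamycin, incubated overnight at 37°C or 30°C. The E. coli BL21(DE3) library had all eight P1ex-region intron nucleotides randomised, the intron placed in the knt kanamycin-resistance gene on pET-22b(+). DiMSum fitness is the error-weighted combination of replicate fold changes, kanamycin against none, normalised to wild type.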

Sequence | self-splicing fitness (ln) (30 °C) | self-splicing fitness (ln) (37 °C)
CUCGAGCAAUAUUACGAGCA | -4.04 ± 0.42 | -2.09 ± 0.27
AAUAAGCAAUAUUACGAUGA | -0.45 ± 0.1 | -0.0904 ± 0.11
GCUGAGCAAUAUUACGAUGG | -2.25 ± 0.17 | -0.805 ± 0.12
AAAGAGCAAUAUUACGGCCG | -1.78 ± 0.18 | -0.0792 ± 0.23
GGGUAGCAAUAUUACGAAUC | 0.0354 ± 0.3 | -0.646 ± 0.36
CUCGAGCAAUAUUACGAUUA | -3.13 ± 0.3 | -2.56 ± 0.26
UGUAAGCAAUAUUACGGUAG | -2.05 ± 0.12 | -1.34 ± 0.13
AACAAGCAAUAUUACGAGCA | -1.22 ± 0.099 | -0.153 ± 0.11
